Results taken from publication PMC9397949.

Molecular target: ACE-2 receptor on the surface of Vero E6 cells (African green monkey (endogenous in Vero E6))
Assay: flow cytometry on cells; about 10^6 Vero-E6 cells blocked with FACS buffer and 5% normal mouse serum, incubated with RBD (8 ug/mL in the methods; different concentrations in the results) 2 h at 37 C; detected with rabbit monoclonal anti-S1 and Alexa Fluor 488 anti-rabbit IgG; percent of positive cells

Row | Substance | percent of cells bound [%]
1 | Recombinant SARS-CoV-2 Spike RBD (Pro330-Ser530), purified (from UniProt P0DTC2 330-530) (domain or fragment) | 60
2 | commercially available recombinant RBD expressed in insect cells (Cat No. Z03479, GenScript) (from UniProt P0DTC2) (domain or fragment) | 78
